Results reported in the supplement of paper PMC11246515.
± gives the standard deviation of the averaged measurements.

Experiment: total protein half-life in vivo (active degradation + dilution); higher = more stable protein
[1] = E. coli NCM3722 delta-clpP delta-lon delta-hslV, growth: N-lim chemostat, doubling time 6 h
[2] = E. coli NCM3722 delta-hslV, growth: N-lim chemostat, doubling time 6 h
[3] = E. coli NCM3722 delta-lon, growth: N-lim chemostat, doubling time 6 h
[4] = E. coli NCM3722 delta-smpB, growth: N-lim chemostat, doubling time 6 h
[5] = wild type E. coli NCM3722, growth: C-lim chemostat, doubling time 3 h
[6] = wild type E. coli NCM3722, growth: C-lim chemostat, doubling time 6 h
[7] = wild type E. coli NCM3722, growth: C-lim chemostat, doubling time 12 h
[8] = wild type E. coli NCM3722, growth: N-lim chemostat, doubling time 6 h
[9] = wild type E. coli NCM3722, growth: N-lim chemostat, doubling time 12 h
[10] = wild type E. coli NCM3722, growth: P-lim chemostat, doubling time 6 h
[11] = wild type E. coli NCM3722, growth: P-lim chemostat, doubling time 12 h
[12] = E. coli NCM3722 delta-clpP, growth: N-lim chemostat, doubling time 6 h

MRQKETTATTRFSLLPGSITRFFLLLIIVLLVTMGVMVQSAVNAWLKDKSYQIVDITHAIQKRVDNWRYVTWQIYDNIAATTSPSSGEGLQETRLKQDVYYLEKPRRKTEALIFGSHDNSTLEMTQRMSTYLDTLWGAENVPWSMYYLNGQDNSLVLISTLPLKDLTSGFKESTVSDIVDSRRAEMLQQANALDERESFSNMRRLAWQNGHYFTLRTTFNQPGHLATVVAFDLPINDLIPPGMPLDSFRLEPDATATGNNDNEKEGTDSVSIHFNSTKIEISSALNSTDMRLVWQVPYGTLLLDTLQNILLPLLLNIGLLALALFGYTTFRHFSSRSTENVPSTAVNNELRILRAINEEIVSLLPLGLLVHDQESNRTVISNKIADHLLPHLNLQNITTMAEQHQGIIQATINNELYEIRMFRSQVAPRTQIFIIRDQDREVLVNKKLKQAQRLYEKNQQGRMIFMKNIGDALKEPAQSLAESAAKLNAPESKQLANQADVLVRLVDEIQLANMLADDSWKSETVLFSVQDLIDEVVPSVLPAIKRKGLQLLINNHLKAHDMRRGDRDALRRILLLLMQYAVTSTQLGKITLEVDQDESSEDRLTFRILDTGEGVSIHEMDNLHFPFINQTQNDRYGKADPLAFWLSDQLARKLGGHLNIKTRDGLGTRYSVHIKMLAADPEVEEEEERLLDDVCVMVDVTSAEIRNIVTRQLENWGATCITPDERLISQDYDIFLTDNPSNLTASGLLLSDDESGVREIGPGQLCVNFNMSNAMQEAVLQLIEVQLAQEEVTESPLGGDENAQLHASGYYALFVDTVPDDVKRLYTEAATSDFAALAQTAHRLKGVFAMLNLVPGKQLCETLEHLIREKDVPGIEKYISDIDSYVKSLL
total protein half-life in vivo [1]: 6.226 ± 0.058 h | total protein half-life in vivo [2]: 6.72 ± 0.27 h | total protein half-life in vivo [3]: 6.86 ± 0.49 h | total protein half-life in vivo [4]: 6.32 ± 0.7 h | total protein half-life in vivo [5]: 3.25 ± 0.077 h | total protein half-life in vivo [6]: 6.3 ± 0.57 h | total protein half-life in vivo [7]: 11.13 ± 0.09 h | total protein half-life in vivo [8]: 6.21 ± 0.15 h | total protein half-life in vivo [9]: 12.6 ± 0.92 h | total protein half-life in vivo [10]: 7 ± 0.88 h | total protein half-life in vivo [11]: 12.9 ± 0.27 h

MKQHQSADNSQGQLYIVPTPIGNLADITQRALEVLQAVDLIAAEDTRHTGLLLQHFGINARLFALHDHNEQQKAETLLAKLQEGQNIALVSDAGTPLINDPGYHLVRTCREAGIRVVPLPGPCAAITALSAAGLPSDRFCYEGFLPAKSKGRRDALKAIEAEPRTLIFYESTHRLLDSLEDIVAVLGESRYVVLARELTKTWETIHGAPVGELLAWVKEDENRRKGEMVLIVEGHKAQEEDLPADALRTLALLQAELPLKKAAALAAEIHGVKKNALYKYALEQQG
total protein half-life in vivo [1]: 6.24 ± 1.1 h | total protein half-life in vivo [12]: 5.77 ± 0.73 h | total protein half-life in vivo [2]: 5.85 ± 0.46 h | total protein half-life in vivo [3]: 5.1 ± 0.5 h | total protein half-life in vivo [4]: 5.25 ± 0.13 h | total protein half-life in vivo [5]: 3.41 ± 0.11 h | total protein half-life in vivo [7]: 11.8 ± 2.3 h | total protein half-life in vivo [8]: 5.57 ± 0.17 h | total protein half-life in vivo [9]: 10.5 ± 0.56 h | total protein half-life in vivo [10]: 5.46 ± 0.11 h | total protein half-life in vivo [11]: 12.4 ± 0.41 h

MRLCDRDIEAWLDEGRLSINPRPPVERINGATVDVRLGNKFRTFRGHTAAFIDLSGPKDEVSAALDRVMSDEIVLDEGEAFYLHPGELALAVTLESVTLPADLVGWLDGRSSLARLGLMVHVTAHRIDPGWSGCIVLEFYNSGKLPLALRPGMLIGALSFEPLSGPAVRPYNRREDAKYRNQQGAVASRIDKD
total protein half-life in vivo [1]: 3.92 ± 0.54 h | total protein half-life in vivo [12]: 3.36 ± 0.25 h | total protein half-life in vivo [2]: 3.062 ± 0.021 h | total protein half-life in vivo [3]: 4.56 ± 1.7 h | total protein half-life in vivo [4]: 3.14 ± 0.53 h | total protein half-life in vivo [5]: 2.852 ± 0.011 h | total protein half-life in vivo [6]: 4.81 ± 0.3 h | total protein half-life in vivo [7]: 7.69 ± 0.16 h | total protein half-life in vivo [8]: 3.17 ± 0.19 h | total protein half-life in vivo [9]: 4.96 ± 0.52 h | total protein half-life in vivo [10]: 5.25 ± 0.11 h | total protein half-life in vivo [11]: 10.4 ± 0.19 h

MLRHNVPVRRDLDQIAADNGFDFHIIDNEIYWDESRAYRFTLRQIEEQIEKPTAELHQMCLEVVDRAVKDEEILTQLAIPPLYWDVIAESWRARDPSLYGRMDFAWCGNAPVKLLEYNADTPTSLYESAYFQWLWLEDARRSGIIPRDADQYNAIQERLISRFSELYSREPFYFCCCQDTDEDRSTVLYLQDCAQQAGQESRFIYIEDLGLGVGGVLTDLDDNVIQRAFKLYPLEWMMRDDNGPLLRKRREQWVEPLWKSILSNKGLMPLLWRFFPGHPNLLASWFDGEKPQIAAGESYVRKPIYSREGGNVTIFDGKNNVVDHADGDYADEPMIYQAFQPLPRFGDSYTLIGSWIVDDEACGMGIREDNTLITKDTSRFVPHYIAG
total protein half-life in vivo [1]: > 8 h | total protein half-life in vivo [12]: > 8 h | total protein half-life in vivo [2]: > 8 h | total protein half-life in vivo [3]: > 8 h | total protein half-life in vivo [7]: 8.91 h | total protein half-life in vivo [8]: > 8 h | total protein half-life in vivo [9]: > 16 h | total protein half-life in vivo [10]: > 8 h | total protein half-life in vivo [11]: > 16 h

MESGHRFDAQTLHSFIQAVFRQMGSEEQEAKLVADHLIAANLAGHDSHGIGMIPSYVRSWSQGHLQINHHAKTVKEAGAAVTLDGDRAFGQVAAHEAMALGIEKAHQHGIAAVALHNSHHIGRIGYWAEQCAAAGFVSIHFVSVVGIPMVAPFHGRDSRFGTNPFCVVFPRKDNFPLLLDYATSAIAFGKTRVAWHKGVPVPPGCLIDVNGVPTTNPAVMQESPLGSLLTFAEHKGYALAAMCEILGGALSGGKTTHQETLQTSPDAILNCMTTIIINPELFGAPDCNAQTEAFAEWVKASPHDDDKPILLPGEWEVNTRRERQKQGIPLDAGSWQAICDAARQIGMPEETLQAFCQQLAS
total protein half-life in vivo [1]: 4.97 ± 0.25 h | total protein half-life in vivo [12]: 3.99 ± 0.17 h | total protein half-life in vivo [2]: 4.28 ± 0.11 h | total protein half-life in vivo [4]: 4.214 ± 0.024 h | total protein half-life in vivo [5]: 3.14 ± 0.059 h | total protein half-life in vivo [6]: 5.02 ± 0.63 h | total protein half-life in vivo [7]: 8.45 ± 0.26 h | total protein half-life in vivo [8]: 4.46 ± 0.42 h | total protein half-life in vivo [9]: 7.26 ± 1.5 h | total protein half-life in vivo [10]: 5.58 ± 0.14 h | total protein half-life in vivo [11]: 10.3 ± 1.2 h

MSNTDASGEKRVTGTSERREQIIQRLRQQGSVQVNDLSALYGVSTVTIRNDLAFLEKQGIAVRAYGGALICDSTTPSVEPSVEDKSALNTAMKRSVAKAAVELIQPGHRVILDSGTTTFEIARLMRKHTDVIAMTNGMNVANALLEAEGVELLMTGGHLRRQSQSFYGDQAEQSLQNYHFDMLFLGVDAIDLERGVSTHNEDEARLNRRMCEVAERIIVVTDSSKFNRSSLHKIIDTQRIDMIIVDEGIPADSLEGLRKAGVEVILVGE [P0ACK2]
total protein half-life in vivo [12]: 6.24 ± 1 h | total protein half-life in vivo [2]: 4.83 ± 0.21 h | total protein half-life in vivo [3]: 5.24 ± 0.27 h | total protein half-life in vivo [4]: 5.04 ± 0.56 h | total protein half-life in vivo [5]: 3.02 ± 0.15 h | total protein half-life in vivo [6]: 5.31 ± 0.35 h | total protein half-life in vivo [7]: 9.94 ± 0.52 h | total protein half-life in vivo [8]: 4.89 ± 0.46 h | total protein half-life in vivo [9]: 9.31 ± 0.91 h | total protein half-life in vivo [10]: 5.05 ± 0.16 h | total protein half-life in vivo [11]: 9.52 ± 1.1 h

MSKSDVFHLGLTKNDLQGATLAIVPGDPDRVEKIAALMDKPVKLASHREFTTWRAELDGKPVIVCSTGIGGPSTSIAVEELAQLGIRTFLRIGTTGAIQPHINVGDVLVTTASVRLDGASLHFAPLEFPAVADFECTTALVEAAKSIGATTHVGVTASSDTFYPGQERYDTYSGRVVRHFKGSMEEWQAMGVMNYEMESATLLTMCASQGLRAGMVAGVIVNRTQQEIPNAETMKQTESHAVKIVVEAARRLL
total protein half-life in vivo [1]: 6.83 ± 0.33 h | total protein half-life in vivo [12]: 6.27 ± 0.78 h | total protein half-life in vivo [2]: 7.09 ± 0.43 h | total protein half-life in vivo [3]: 5.95 ± 0.47 h | total protein half-life in vivo [4]: 5.823 ± 0.029 h | total protein half-life in vivo [5]: 3.23 ± 0.11 h | total protein half-life in vivo [6]: 6.246 ± 0.033 h | total protein half-life in vivo [7]: 13.7 ± 2.1 h | total protein half-life in vivo [8]: 5.75 ± 0.092 h | total protein half-life in vivo [9]: 10.7 ± 0.74 h | total protein half-life in vivo [10]: 5.99 ± 0.2 h | total protein half-life in vivo [11]: 12.4 ± 0.29 h
